T1: DNA ligase IV tandem BRCT domains (residues 654-911) (UniProt P49917 654-911)
T1 sequence (looked up): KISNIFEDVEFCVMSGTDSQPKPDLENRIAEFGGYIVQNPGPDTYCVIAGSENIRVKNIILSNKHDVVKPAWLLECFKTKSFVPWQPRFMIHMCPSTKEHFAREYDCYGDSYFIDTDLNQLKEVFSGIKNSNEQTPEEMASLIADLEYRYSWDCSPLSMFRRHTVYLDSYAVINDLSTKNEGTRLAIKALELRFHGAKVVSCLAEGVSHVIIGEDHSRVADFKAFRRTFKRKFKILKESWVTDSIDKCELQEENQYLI


Tests used:
[1] = target: T1, DNA ligase IV tandem BRCT domains …; experiment: SEC
SEC = target: the molecule itself; experiment: SEC
SEC-MALS = target: the molecule itself; experiment: SEC-MALS

Row | Binder | binding result [1] | binding result (SEC) | stoichiometry N (SEC-MALS)
1 | XRCC4 residues 1-238, non-phosphorylated (domain or fragment, UniProt Q13426 1-238, looked up) MERKISRIHLVSEPSITHFLQVSWEKTLESGFVITLTDGHSAWTGTVSESEISQEADDMAMEKGKYVGELRKALLSGAGPADVYTFNFSKESCYFFFEKNLKDVSFRLGSFNLEKVENPAEVIRELICYCLDTIAENQAKNEHLQKENERLLRDWNDVQGRFEKCVSAKEALETDLYKRFILVLNEKKTKIRSLHNKLLNAAQEREKDIKQEGETAICSEMTADRDPVYDESTDEESE | binds | binds | –
2 | CK2-phosphorylated XRCC4 residues 1-238 (domain or fragment, UniProt Q13426 1-238, looked up, phosphoserine at 232, phosphothreonine at 233 (CK2alpha in vitro)) MERKISRIHLVSEPSITHFLQVSWEKTLESGFVITLTDGHSAWTGTVSESEISQEADDMAMEKGKYVGELRKALLSGAGPADVYTFNFSKESCYFFFEKNLKDVSFRLGSFNLEKVENPAEVIRELICYCLDTIAENQAKNEHLQKENERLLRDWNDVQGRFEKCVSAKEALETDLYKRFILVLNEKKTKIRSLHNKLLNAAQEREKDIKQEGETAICSEMTADRDPVYDESTDEESE | binds | – | 2

— publication PMC5449630 (Nucleic Acids Research, 2017)
